Laboratory results published in PMC4022879.
pKi: −log10 of the molar value.

Tests used:
[1] = molecular target: activated coagulation factor XII (FXIIa); experiment: chromogenic enzyme inhibition assay; 1 nM FXIIa, 500 μM S2302, 37 °C, 110 mM Tris-HCl pH 8.0, 250 mM NaCl, 1% BSA; residual activity in triplicate at at least six inhibitor concentrations; Ki from a linear fit of 1/v against inhibitor concentration
[2] = molecular target: bovine pancreatic trypsin (bovine); experiment: chromogenic enzyme inhibition assay; 1 nM trypsin, 500 μM S2765, 37 °C, 110 mM Tris-HCl pH 8.0, 250 mM NaCl, 1% BSA; residual activity in triplicate at at least six inhibitor concentrations; Ki from a linear fit of 1/v against inhibitor concentration
[3] = molecular target: activated coagulation factor XI (FXIa); experiment: chromogenic enzyme inhibition assay; 200 pM FXIa, 500 μM S2366, 37 °C, 110 mM Tris-HCl pH 8.0, 250 mM NaCl, 1% BSA; residual activity in triplicate at at least six inhibitor concentrations; Ki from a linear fit of 1/v against inhibitor concentration

CHFI-234 (from UniProt P01088 40-136) (domain or fragment)
pKi [1]: 8.49
pKi [2]: 8.66

CHFI-1234 (from UniProt P01088 29-108) (domain or fragment)
pKi [1]: 9.00
pKi [2]: 9.00

CHFI-2, synthetic cyclic peptide that resembles the CHFI protease-binding loop (from UniProt P01088 48-73)
pKi [3]: 4.03
pKi [2]: 4.93

CHFI-123 (from UniProt P01088 29-121) (domain or fragment)
pKi [1]: 6.94
